Where two headings read alike, the source gives them in different places.
Experiments:
HSC-F (cynomolgous CD3) [1] = biological target: T1, HSC-F (cynomolgous CD3) (cynomolgus monkey, UniProt Q95LI8 22-171; Q95LI7 23-181); assay: FACS binding, HSC-F
[2] = biological target: T2, human CD3 on the human T-cell line Jurkat (human, UniProt P09693 23-182; P20963 22-164); assay: FACS binding, Jurkat
Jurkat (CD3) = Jurkat (CD3) (human, UniProt P09693 23-182; P20963 22-164); assay: FACS binding, Jurkat
[3] = biological target: T2, human CD3 on the human T-cell line …; assay: FACS binding, Jurkat; remark: listed apart in the source
HSC-F (cynomolgous CD3) [4] = biological target: T1, HSC-F (cynomolgous CD3); assay: FACS binding, HSC-F; remark: listed apart in the source

T1 sequence (Q95LI7 whole entry, looked up, chain 1 of 2): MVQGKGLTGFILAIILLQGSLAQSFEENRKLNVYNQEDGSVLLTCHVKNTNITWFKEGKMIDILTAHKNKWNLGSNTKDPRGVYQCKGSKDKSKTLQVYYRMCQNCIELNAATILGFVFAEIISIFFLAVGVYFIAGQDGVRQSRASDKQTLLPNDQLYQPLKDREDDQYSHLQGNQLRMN
T1 sequence (Q95LI8 whole entry, looked up, chain 2 of 2): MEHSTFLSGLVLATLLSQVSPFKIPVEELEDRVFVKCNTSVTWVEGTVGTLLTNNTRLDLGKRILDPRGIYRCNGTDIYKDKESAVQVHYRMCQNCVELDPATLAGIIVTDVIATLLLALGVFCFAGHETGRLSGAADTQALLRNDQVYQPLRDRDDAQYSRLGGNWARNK
T2 sequence (chain, as listed by the source, chain 1 of 4): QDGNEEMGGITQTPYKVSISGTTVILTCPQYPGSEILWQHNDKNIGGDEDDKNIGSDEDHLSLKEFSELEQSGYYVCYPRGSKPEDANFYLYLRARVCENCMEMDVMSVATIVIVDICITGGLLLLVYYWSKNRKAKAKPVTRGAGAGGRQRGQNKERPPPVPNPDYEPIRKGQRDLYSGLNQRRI
T2 sequence (chain, as listed by the source, chain 2 of 4): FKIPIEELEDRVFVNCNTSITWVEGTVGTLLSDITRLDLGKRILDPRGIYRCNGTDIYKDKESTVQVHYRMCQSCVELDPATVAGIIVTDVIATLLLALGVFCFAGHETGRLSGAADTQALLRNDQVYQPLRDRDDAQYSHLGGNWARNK
T2 sequence (P09693 23-182, chain 3 of 4): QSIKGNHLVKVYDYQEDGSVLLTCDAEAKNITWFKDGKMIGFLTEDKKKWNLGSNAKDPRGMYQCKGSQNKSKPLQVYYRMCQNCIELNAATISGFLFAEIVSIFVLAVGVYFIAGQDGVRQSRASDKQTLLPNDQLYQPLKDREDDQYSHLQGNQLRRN
T2 sequence (P20963 22-164, chain 4 of 4): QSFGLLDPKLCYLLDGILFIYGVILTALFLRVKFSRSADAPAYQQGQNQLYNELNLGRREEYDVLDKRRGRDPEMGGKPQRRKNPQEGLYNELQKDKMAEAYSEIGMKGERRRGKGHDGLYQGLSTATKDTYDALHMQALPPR
Sequence of Jurkat (CD3) (chain, as listed by the source, chain 1 of 4): as the sequence (chain, as listed by the source, chain 1 of 4) above
Sequence of Jurkat (CD3) (chain, as listed by the source, chain 2 of 4): as the sequence (chain, as listed by the source, chain 2 of 4) above
Sequence of Jurkat (CD3) (P09693 23-182, chain 3 of 4): as the sequence (P09693 23-182, chain 3 of 4) above
Sequence of Jurkat (CD3) (P20963 22-164, chain 4 of 4): as the sequence (P20963 22-164, chain 4 of 4) above

EC50 (HSC-F (cynomolgous CD3) [1]) [µg/mL]	EC50 [2] [µg/mL]	Binder	further results
0.26		IgG1-huCD3-H4L1 (antibody, V domains shown) VH: EVKLVESGGGLVKPGRSLRLSCAASGFTFNTYAMNWVRQAPGKGLEWVARIRSKYNNYATYYADSVKDRFTISRDDSKSILYLQMNSLKTEDTAMYYCVRHGNFGNSYVSWFAYWGQGTMVTVSS VL: not shown	
	0.02	IgG1-huCD3-H3L3, wild type Fc region (antibody, V domains shown) VH: EVKLVESGGGLVKPGRSLRLSCAASGFTFNTYAMNWVRQAPGKGLEWVARIRSKYNNYATYYADSVKDRFTISRDDSKSILYLQMNSLKTEDTAMYYCVRHGNFGNSYVSWFAYWGQGTLVTVSS VL: QAVVTQEPSFSVSPGGTVTLTCRSSTGAVTTSNYANWVQQTPGQAFRGLIGGTNKRAPGVPARFSGSILGNKAALTITGAQADDESDYYCALWYSNLWVFGGGTKLTVL	
		BsIgG1 CD3 x HER2 (bispecific antibody) chain 1: EVKLLESGGGLVQPKGSLKLSCAASGFTFNTYAMNWVRQAPGKGLEWVARIRSKYNNYATYYADSVKDRFTISRDDSQSILYLQMNNLKTEDTAMYYCVRHGNFGNSYVSWFAYWGQGTLVTVSA chain 2: QAVVTQESALTTSPGETVTLTCRSSTGAVTTSNYANWVQEKPDHLFTGLIGGTNKRAPGVPARFSGSLIGDKAALTITGAQTEDEAIYFCALWYSNLWVFGGGTKLTVL chain 3: QVQLVQSGAEVKKPGASVKVSCKASGYTFTNYGISWVRQAPGQGLEWMGWLSAYSGNTIYAQKLQGRVTMTTDTSTTTAYMELRSLRSDDTAVYYCARDRIVVRPDYFDYWGQGTLVTVSS chain 4: EIVLTQSPATLSLSPGERATLSCRASQSVSSYLAWYQQKPGQAPRLLIYDASNRATGIPARFSGSGSGTDFTLTISSLEPEDFAVYYCQQRSNWPRTFGQGTKVEIK	EC50 (Jurkat (CD3)): 0.68 µg/mL
0.31		IgG1-huCD3-H1L2 (antibody, V domains shown) VH: EVKLVESGGGLVQPGGSLRLSCAASGFTFNTYAMNWVRQAPGKGLEWVARIRSKYNNYATYYADSVKDRFTISRDDSKSSLYLQMNNLKTEDTAMYYCVRHGNFGNSYVSWFAYWGQGTLVTVSS VL: QAVVTQEPSFSVSPGGTVTLTCRSSTGAVTTSNYANWVQQTPGQAFRGLIGGTNKRAPGVPARFSGSILGNKAALTITGAQADDESIYFCALWYSNLWVFGGGTKLTVL	
0.37		IgG1-huCD3-H1L1 (antibody, V domains shown) VH: EVKLVESGGGLVQPGGSLRLSCAASGFTFNTYAMNWVRQAPGKGLEWVARIRSKYNNYATYYADSVKDRFTISRDDSKSSLYLQMNNLKTEDTAMYYCVRHGNFGNSYVSWFAYWGQGTLVTVSS VL: not shown	
	0.06	IgG1-huCD3-H1L3, wild type Fc region (antibody, V domains shown) VH: EVKLVESGGGLVQPGGSLRLSCAASGFTFNTYAMNWVRQAPGKGLEWVARIRSKYNNYATYYADSVKDRFTISRDDSKSSLYLQMNNLKTEDTAMYYCVRHGNFGNSYVSWFAYWGQGTLVTVSS VL: QAVVTQEPSFSVSPGGTVTLTCRSSTGAVTTSNYANWVQQTPGQAFRGLIGGTNKRAPGVPARFSGSILGNKAALTITGAQADDESDYYCALWYSNLWVFGGGTKLTVL	
0.28		IgG1-huCD3-H1L3 (antibody, V domains shown) VH: EVKLVESGGGLVQPGGSLRLSCAASGFTFNTYAMNWVRQAPGKGLEWVARIRSKYNNYATYYADSVKDRFTISRDDSKSSLYLQMNNLKTEDTAMYYCVRHGNFGNSYVSWFAYWGQGTLVTVSS VL: QAVVTQEPSFSVSPGGTVTLTCRSSTGAVTTSNYANWVQQTPGQAFRGLIGGTNKRAPGVPARFSGSILGNKAALTITGAQADDESDYYCALWYSNLWVFGGGTKLTVL	
	0.05	IgG1-huCD3-H4L1, wild type Fc region (antibody, V domains shown) VH: EVKLVESGGGLVKPGRSLRLSCAASGFTFNTYAMNWVRQAPGKGLEWVARIRSKYNNYATYYADSVKDRFTISRDDSKSILYLQMNSLKTEDTAMYYCVRHGNFGNSYVSWFAYWGQGTMVTVSS VL: not shown	
	0.04	IgG1-huCD3-H3L1 with LFLEDA mutations (antibody, V domains shown) VH: EVKLVESGGGLVKPGRSLRLSCAASGFTFNTYAMNWVRQAPGKGLEWVARIRSKYNNYATYYADSVKDRFTISRDDSKSILYLQMNSLKTEDTAMYYCVRHGNFGNSYVSWFAYWGQGTLVTVSS VL: not shown	EC50 [3]: 0.04 µg/mL
	0.08	IgG1-huCD3-H1L2, wild type Fc region (antibody, V domains shown) VH: EVKLVESGGGLVQPGGSLRLSCAASGFTFNTYAMNWVRQAPGKGLEWVARIRSKYNNYATYYADSVKDRFTISRDDSKSSLYLQMNNLKTEDTAMYYCVRHGNFGNSYVSWFAYWGQGTLVTVSS VL: QAVVTQEPSFSVSPGGTVTLTCRSSTGAVTTSNYANWVQQTPGQAFRGLIGGTNKRAPGVPARFSGSILGNKAALTITGAQADDESIYFCALWYSNLWVFGGGTKLTVL	
0.19		IgG1-huCD3-H3L1-LFLEDA (antibody, V domains shown) VH: EVKLVESGGGLVKPGRSLRLSCAASGFTFNTYAMNWVRQAPGKGLEWVARIRSKYNNYATYYADSVKDRFTISRDDSKSILYLQMNSLKTEDTAMYYCVRHGNFGNSYVSWFAYWGQGTLVTVSS VL: not shown	EC50 (HSC-F (cynomolgous CD3) [4]): 0.3 µg/mL
0.11		IgG1-huCD3-H3L3 (antibody, V domains shown) VH: EVKLVESGGGLVKPGRSLRLSCAASGFTFNTYAMNWVRQAPGKGLEWVARIRSKYNNYATYYADSVKDRFTISRDDSKSILYLQMNSLKTEDTAMYYCVRHGNFGNSYVSWFAYWGQGTLVTVSS VL: QAVVTQEPSFSVSPGGTVTLTCRSSTGAVTTSNYANWVQQTPGQAFRGLIGGTNKRAPGVPARFSGSILGNKAALTITGAQADDESDYYCALWYSNLWVFGGGTKLTVL	
		bsIgG1 huCD3-H3L1xHER2-LFLEDA (bispecific antibody) heavy 1: EVKLVESGGGLVKPGRSLRLSCAASGFTFNTYAMNWVRQAPGKGLEWVARIRSKYNNYATYYADSVKDRFTISRDDSKSILYLQMNSLKTEDTAMYYCVRHGNFGNSYVSWFAYWGQGTLVTVSSASTKGPSVFPLAPSSKSTSGGTAALGCLVKDYFPEPVTVSWNSGALTSGVHTFPAVLQSSGLYSLSSVVTVPSSSLGTQTYICNVNHKPSNTKVDKRVEPKSCDKTHTCPPCPAPEFEGGPSVFLFPPKPKDTLMISRTPEVTCVVVAVSHEDPEVKFNWYVDGVEVHNAKTKPREEQYNSTYRVVSVLTVLHQDWLNGKEYKCKVSNKALPAPIEKTISKAKGQPREPQVYTLPPSREEMTKNQVSLTCLVKGFYPSDIAVEWESNGQPENNYKTTPPVLDSDGSFLLYSKLTVDKSRWQQGNVFSCSVMHEALHNHYTQKSLSLSPGK VL 1: not shown heavy 2: QVQLVQSGAEVKKPGASVKVSCKASGYTFTNYGISWVRQAPGQGLEWMGWLSAYSGNTIYAQKLQGRVTMTTDTSTTTAYMELRSLRSDDTAVYYCARDRIVVRPDYFDYWGQGTLVTVSSASTKGPSVFPLAPSSKSTSGGTAALGCLVKDYFPEPVTVSWNSGALTSGVHTFPAVLQSSGLYSLSSVVTVPSSSLGTQTYICNVNHKPSNTKVDKRVEPKSCDKTHTCPPCPAPEFEGGPSVFLFPPKPKDTLMISRTPEVTCVVVAVSHEDPEVKFNWYVDGVEVHNAKTKPREEQYNSTYRVVSVLTVLHQDWLNGKEYKCKVSNKALPAPIEKTISKAKGQPREPQVYTLPPSREEMTKNQVSLTCLVKGFYPSDIAVEWESNGQPENNYKTTPPVLDSDGSFFLYSRLTVDKSRWQQGNVFSCSVMHEALHNHYTQKSLSLSPGK VL 2: EIVLTQSPATLSLSPGERATLSCRASQSVSSYLAWYQQKPGQAPRLLIYDASNRATGIPARFSGSGSGTDFTLTISSLEPEDFAVYYCQQRSNWPRTFGQGTKVEIK	EC50 (HSC-F (cynomolgous CD3) [4]): 3.54 µg/mL
		bsIgG1 huCD3-H3L1×HER2-LFLEDA (bispecific antibody) heavy 1: EVKLVESGGGLVKPGRSLRLSCAASGFTFNTYAMNWVRQAPGKGLEWVARIRSKYNNYATYYADSVKDRFTISRDDSKSILYLQMNSLKTEDTAMYYCVRHGNFGNSYVSWFAYWGQGTLVTVSSASTKGPSVFPLAPSSKSTSGGTAALGCLVKDYFPEPVTVSWNSGALTSGVHTFPAVLQSSGLYSLSSVVTVPSSSLGTQTYICNVNHKPSNTKVDKRVEPKSCDKTHTCPPCPAPEFEGGPSVFLFPPKPKDTLMISRTPEVTCVVVAVSHEDPEVKFNWYVDGVEVHNAKTKPREEQYNSTYRVVSVLTVLHQDWLNGKEYKCKVSNKALPAPIEKTISKAKGQPREPQVYTLPPSREEMTKNQVSLTCLVKGFYPSDIAVEWESNGQPENNYKTTPPVLDSDGSFLLYSKLTVDKSRWQQGNVFSCSVMHEALHNHYTQKSLSLSPGK VL 1: not shown heavy 2: QVQLVQSGAEVKKPGASVKVSCKASGYTFTNYGISWVRQAPGQGLEWMGWLSAYSGNTIYAQKLQGRVTMTTDTSTTTAYMELRSLRSDDTAVYYCARDRIVVRPDYFDYWGQGTLVTVSSASTKGPSVFPLAPSSKSTSGGTAALGCLVKDYFPEPVTVSWNSGALTSGVHTFPAVLQSSGLYSLSSVVTVPSSSLGTQTYICNVNHKPSNTKVDKRVEPKSCDKTHTCPPCPAPEFEGGPSVFLFPPKPKDTLMISRTPEVTCVVVAVSHEDPEVKFNWYVDGVEVHNAKTKPREEQYNSTYRVVSVLTVLHQDWLNGKEYKCKVSNKALPAPIEKTISKAKGQPREPQVYTLPPSREEMTKNQVSLTCLVKGFYPSDIAVEWESNGQPENNYKTTPPVLDSDGSFFLYSRLTVDKSRWQQGNVFSCSVMHEALHNHYTQKSLSLSPGK VL 2: EIVLTQSPATLSLSPGERATLSCRASQSVSSYLAWYQQKPGQAPRLLIYDASNRATGIPARFSGSGSGTDFTLTISSLEPEDFAVYYCQQRSNWPRTFGQGTKVEIK	EC50 [3]: 0.28 µg/mL
